This assay concerns the target FAM-LIG1(118–130)K126me2 peptide (human). Description: fluorescence polarisation; FAM-labelled peptide with GST-tagged domains or MBP-tagged full-length UHRF1; as described in ref. 4, plotted as change in anisotropy. For orientation: In fluorescence polarisation assays a small probe gives low polarisation when free and higher when bound to something large.

Regarding “GST-tagged chromodomain Y-like protein isoform 2 (CDYL1b) chromodomain (domain or fragment)”, the ratio of its dissociation constant to that of the UHRF1 TTD came out at 70 fold.

The values above are taken from PMC7585203.
